Publication PMC9967152 (International Journal of Molecular Sciences, 2023)
Where a SMILES comes first, the peptide text is derived from it. [ ]: non-standard residue; d: D form. The star is where a group is joined. Daunorubicin(13-NOCH2CO) = COc1cccc2c1C(=O)c1c(O)c3c(c(O)c1C2=O)C[C@@](O)(C(C)=NOCC(=O)*)C[C@@H]3O[C@H]1C[C@H](N)[C@H](O)[C@H](C)O1; Sta = CC(C)C[C@H](N)[C@@H](O)CC(=O)O; Nle = CCCC[C@H](N)C(=O)O; βAla = NCCC(=O)O

Assays:
[1] = Stability in incomplete (serum-free) DMEM; type: in vitro ADME; conditions: 25 µM, 37 °C, 600 rpm, LC–MS, n = 2
Method: The conjugates were incubated in incomplete DMEM for 3 h (similarly to the internalisation studies) or in 2.5% FBS containing DMEM for 24 h (conditions for the MTT assay). […] No significant loss of L1 and L5 (<20%) or L6 (<30%) was observed after 3 h (see Supplementary Materials, Figure S17).
DMSO stock solutions of the conjugates (2.5 mM) were diluted in DMEM free from or containing 2.5% FBS, to a final concentration of 25 μM. The mixture was incubated and stirred at 37 °C, 600 rpm, and 30 µL aliquots were collected after 0 min, 0.5, 1, 2, 4, 8 and 24 h, in duplicates. Then, to each sample, 90 µL of 0.1% formic acid containing MeCN was added and the samples were frozen at −25 °C for ≥30 min to aid protein precipitation. Large FBS components were removed by centrifugation (15 min, 5000 g, 4 °C). Aliquots of 50 µL supernatant were diluted with an equal volume of ddH2O + 0.1% formic acid and analysed by LC–MS. Control measurements were performed in the same manner (25 μM bioconjugate in 100% ddH2O).

[2] = Stability in mouse plasma; type: in vitro ADME; conditions: 37 °C, HPLC-MS; for Time after which release of the toxic metabolite Dau=Aoa-Leu-OH starts: 10 µM, for L5 and L6 in a considerably low amount; for remaining at 24 h, 10 μM: n = 3, read-out: Intact conjugate after one day (24 h)
Method: Due to their low IC50 values and internalisation on the tested cell lines, conjugates L1, L5 and L6 were chosen for investigation of their stability in mouse plasma, as potential candidates for in vivo studies. They were incubated at a concentration of 10 µM, with mouse plasma for 24 h at 37 °C. Samples were collected at 0 h, 30 min, 1 h, 2 h, 4 h, 8 h and 24 h and analysed by HPLC-MS. […] Furthermore, after 2 h, L1 starts to release the toxic metabolite Dau=Aoa-Leu-OH, whereas this happens only after 24 h for L5 and L6, in a considerably low amount (see Supplementary Materials, Figures S18–S20).
The conjugates were dissolved in ddH2O containing 10% DMSO (stock solution: 100 μM) and diluted with mouse plasma to a final concentration of 10 μM. The mixture was incubated and stirred at 37 °C, 600 rpm, and 30 µL aliquots were collected after 0 min, 0.5, 1, 2, 4, 8 and 24 h, in triplicates. Then, to each plasma sample, 90 µL of 0.1% formic acid containing MeCN was added, and the samples were frozen at −25 °C for ≥30 min to aid protein precipitation. Large plasma proteins were removed by centrifugation (15 min, 5000× g, 4 °C). Aliquots of 50 µL supernatant were diluted with an equal volume of ddH2O + 0.1% formic acid and analysed by LC–MS. Control measurements were performed in the same manner (10 μM bioconjugate in 100% ddH2O).

healthy NOD-SCID mice = assay: In vivo chronic toxicity study in healthy mice; set-up: species or system mouse; conditions: 20 mg/kg calculated on Dau content, every 5th day, four treatments, n = 3
Method: Based on the stability assay performed in murine plasma, we decided to investigate L5 and L6 in vivo. To determine the dosage for the tumour growth inhibition experiment, we performed a chronic toxicity study using healthy mice. PDCs were administered every 5th day in three different doses calculated on the Dau content: 5 mg/kg, 10 mg/kg, and 20 mg/kg (Figure 4A). […] When 10 mg/kg drug was applied, the fitness of mice was not affected more than that of mice that received 5 mg/kg.
The toxicity experiments were done in healthy NOD-SCID mice. Treatments were administered every 5th day. Three different concentrations were tested, 5 mg/kg, 10 mg/kg and 20 mg/kg, respectively. Each group consisted of three mice. Mouse weight was monitored five times per week.

[3] = tested on: PC-3 human prostatic adenocarcinoma xenograft in NOD-SCID mice; assay: In vivo tumour growth inhibition, subcutaneous PC-3 xenograft; set-up: species or system mouse; conditions: 10 mg/kg on Dau content i.p. every 5th day, n = 8
Method: The testing of the antitumour conjugates was carried out in a murine xenograft model. It was established by inoculating subcutaneously 100 µL of cell suspension of PC-3 prostate cancer cells with a concentration of 2 × 10^7 cells/mL.
Once the tumour volume reached 60 mm^3, mice were randomised and assigned to different groups for each treatment, respectively 0.9% saline as control, free daunorubicin, L5, and L6. Each group consisted of eight mice. Peptide–drug conjugates were injected intraperitoneally every 5th day, five times in total (daunorubicin dosage of 10 mg/kg for each treatment). In the case of free daunorubicin, two treatments were administered at the same time points as the first two treatments with conjugates, with a dosage of 1 mg/kg, the maximum tolerated dose (MTD). Weight and tumour size of mice were monitored throughout the whole experiment, two times per week. On day 33, mice were euthanized, and primary tumour, heart, lung, liver and spleen were harvested and stored in 4% formalin (Molar Chemicals, Halásztelek, Hungary). After 2–3 days of incubation in formalin, tissue samples were examined macroscopically. Organs and primary tumours from the different treatment groups were weighed and inspected under a stereomicroscope to see any occurrent changes in morphology compared to the controls.

[4] = Metabolism in rat liver lysosomal homogenate; type: in vitro ADME; conditions: 0.2 M NaOAc pH 5.05, 37 °C, conjugate–lysosomal protein 1:10 (w/w), HPLC-MS, triplicates
Method: All the conjugates contain a cathepsin B cleavable spacer, either GFLG or LRRY, to allow the release of the toxic payload in lysosomes after receptor-mediated internalisation. We explored the metabolism of L1, L3, L5 and L6 in rat liver lysosomal homogenate to mimic this situation. The experiment was performed over 72 h, sampling at 0 min, 15 min, 30 min, 1 h, 2 h, 6 h, 24 h and 72 h in triplicates. All the (Dau=Aoa-LRRY)–BBN (7-14) conjugates have a similar degradation profile and they quickly release the active metabolite Dau=Aoa-Leu-OH, which can be detected after 15 min (Figure 3). […] Its signal cannot be detected anymore already after 1 h.
The rat liver lysosomal homogenate was prepared based on our previously published procedure, with small modifications: livers from two male Wistar rats (32.6 g and 41.2 g, respectively) were collected, minced with a knife and homogenised in two volumes of ice-cold 0.3 M sucrose, using a T25 Ultra Turrax homogenizer (∼100 mL). […] The protein concentration was determined by measuring the absorbance at 260 nm and 280 nm, and was calculated using the formula: Concentration (μg/μL) = 1.55 ∗ A280 − 0.76 ∗ A260; it was determined as 71.76 μg/μL. […]
The conjugates (2.5 μg/μL in DMSO, 5 μL) were diluted with 0.2 M NaOAc solution (pH 5.05, 495 μL) to 0.025 μg/μL. […] The composition of the samples was determined by HPLC-MS.

Row | Structure (SMILES) | Loss of conjugate after 3 h [1] | Time after which release of the toxic metabolite Dau=Aoa-Leu-OH starts [2] | remaining at 24 h, 10 μM ([2]; 600 rpm) | Decrease in mouse weight (healthy NOD-SCID mice) | Toxicity during the tumour growth inhibition experiment [3] | time to release of active metabolite Dau=Aoa-Leu-OH | remaining at 8 h, 10 μM ([2]; 600 rpm, n = 3, read-out: Detected fraction after 8 h) | half-life at 10 μM ([2]; 600 rpm, n = 3, read-out: t1/2 in mouse plasma (converted)) | Time after which the signal of the intact conjugate cannot be detected anymore [4]
1 | CCCC[C@H](NC(=O)C[C@H](O)[C@H](CC(C)C)NC(=O)[C@H](Cc1c[nH]cn1)NC(=O)CCNC(=O)[C@@H](NC(=O)[C@H](C)NC(=O)[C@H](Cc1c[nH]c2ccccc12)NC(=O)[C@H](CCC(N)=O)NC(=O)[C@@H](Cc1ccccc1)NC(=O)[C@H](Cc1ccc(O)cc1)NC(=O)[C@H](CCCNC(=N)N)NC(=O)[C@H](CCCNC(=N)N)NC(=O)[C@H](CC(C)C)NC(=O)CON=C(C)[C@]1(O)Cc2c(O)c3c(c(O)c2[C@@H](O[C@H]2C[C@H](N)[C@H](O)[C@H](C)O2)C1)C(=O)c1c(OC)cccc1C3=O)C(C)C)C(N)=O [L6, (Dau=Aoa)-LRRY-BBN[D-Phe6, β-Ala11, Sta13, Nle14]] ({Daunorubicin(13-NOCH2CO)}-LRRY[dF]QWAV[βAla]H[Sta][Nle]-NH2) | < 30% | 24 h | > 80% | 10–15% | lower toxicity compared to free daunorubicin | – | – | – | –
2 | COc1cccc2c1C(=O)c1c(O)c3c(c(O)c1C2=O)C[C@@](O)(C(C)=NOCC(=O)N[C@@H](CC(C)C)C(=O)N[C@@H](CCCNC(=N)N)C(=O)N[C@@H](CCCNC(=N)N)C(=O)N[C@@H](Cc1ccc(O)cc1)C(=O)N[C@H](Cc1ccccc1)C(=O)N[C@@H](CCC(N)=O)C(=O)N[C@@H](Cc1c[nH]c2ccccc12)C(=O)N[C@@H](C)C(=O)N[C@H](C(=O)NCC(=O)N[C@@H](Cc1c[nH]cn1)C(=O)N[C@@H](CC(C)C)[C@@H](O)CC(=O)N[C@@H](CC(C)C)C(N)=O)C(C)C)C[C@@H]3O[C@H]1C[C@H](N)[C@H](O)[C@H](C)O1 [L5, (Dau=Aoa)-LRRY-BBN[D-Phe6, Sta13, Leu14]] ({Daunorubicin(13-NOCH2CO)}-LRRY[dF]QWAVGH[Sta]L-NH2) | < 20% | 24 h | > 80% | 10–15% | lower toxicity compared to free daunorubicin | < 30 min | – | – | –
3 | CCCC[C@H](NC(=O)[C@H](CC(C)C)NC(=O)[C@H](Cc1c[nH]cn1)NC(=O)CNC(=O)[C@@H](NC(=O)[C@H](C)NC(=O)[C@H](Cc1c[nH]c2ccccc12)NC(=O)[C@H](CCC(N)=O)NC(=O)[C@H](Cc1ccc(O)cc1)NC(=O)[C@H](CCCNC(=N)N)NC(=O)[C@H](CCCNC(=N)N)NC(=O)[C@H](CC(C)C)NC(=O)CON=C(C)[C@]1(O)Cc2c(O)c3c(c(O)c2[C@@H](O[C@H]2C[C@H](N)[C@H](O)[C@H](C)O2)C1)C(=O)c1c(OC)cccc1C3=O)C(C)C)C(N)=O [L1, (Dau=Aoa)-LRRY-BBN(7-14)[Nle14]] ({Daunorubicin(13-NOCH2CO)}-LRRYQWAVGHL[Nle]-NH2) | < 20% | 2 h | – | – | – | < 30 min | 20% | 3.8 h | ≤ 1 h
